Assay results published in patent publication US20230407373A1 (priority 2020, published 2023).
Where two headings read alike, the source gives them in different places.

B1: HNRNPDL (protein, UniProt O14979 1-420, looked up)
Heterogeneous nuclear …: MEVPPRLSHVPPPLFPSAPATLASRSLSHWRPRPPRQLAPLLPSLAPSSARQGARRAQRHVTAQQPSRLAGGAAIKGGRRRRPDLFRRHFKSSSIQRSAAAAAATRTARQHPPADSSVTMEDMNEYSNIEEFAEGSKINASKNQQDDGKMFIGGLSWDTSKKDLTEYLSRFGEVVDCTIKTDPVTGRSRGFGFVLFKDAASVDKVLELKEHKLDGKLIDPKRAKALKGKEPPKKVFVGGLSPDTSEEQIKEYFGAFGEIENIELPMDTKTNERRGFCFITYTDEEPVKKLLESRYHQIGSGKCEIKVAQPKEVYRQQQQQQKGGRGAAAGGRGGTRGRGRGQGQNWNQGFNNYYDQGYGNYNSAYGGDQNYSGYGGYDYTGYNYGNYGYGQGYADYSGQQSTYGKASRGGGNHQNNYQPY
B2: RBM3: host protein, UniProt P98179 (protein, UniProt P98179 1-157, looked up)
RNA-binding protein 3: MSSEEGKLFVGGLNFNTDEQALEDHFSSFGPISEVVVVKDRETQRSRGFGFITFTNPEHASVAMRAMNGESLDGRQIRVDHAGKSARGTRGGGFGAHGRGRSYSRGGGDQGYGSGRYYDSRPGGYGYGYGRSRDYNGRNQGGYDRYSGGNYRDNYDN
B3: HNRNPL: host protein, UniProt P14866 (protein, UniProt P14866 1-589, looked up)
Heterogeneous nuclear …: MSRRLLPRAEKRRRRLEQRQQPDEQRRRSGAMVKMAAAGGGGGGGRYYGGGSEGGRAPKRLKTDNAGDQHGGGGGGGGGAGAAGGGGGGENYDDPHKTPASPVVHIRGLIDGVVEADLVEALQEFGPISYVVVMPKKRQALVEFEDVLGACNAVNYAADNQIYIAGHPAFVNYSTSQKISRPGDSDDSRSVNSVLLFTILNPIYSITTDVLYTICNPCGPVQRIVIFRKNGVQAMVEFDSVQSAQRAKASLNGADIYSGCCTLKIEYAKPTRLNVFKNDQDTWDYTNPNLSGQGDPGSNPNKRQRQPPLLGDHPAEYGGPHGGYHSHYHDEGYGPPPPHYEGRRMGPPVGGHRRGPSRYGPQYGHPPPPPPPPEYGPHADSPVLMVYGLDQSKMNCDRVFNVFCLYGNVEKVKFMKSKPGAAMVEMADGYAVDRAITHLNNNFMFGQKLNVCVSKQPAIMPGQSYGLEDGSCSYKDFSESRNNRFSTPEQAAKNRIQHPSNVLHFFNAPLEVTEENFFEICDELGVKRPSSVKVFSGKSERSSSGLLEWESKSDALETLGFLNHYQMKNPNGPYPYTLKLCFSTAQHAS
B4: DDX5: host protein, UniProt P17844 (protein, UniProt P17844 1-614, looked up)
Probable ATP-dependent RNA …: MSGYSSDRDRGRDRGFGAPRFGGSRAGPLSGKKFGNPGEKLVKKKWNLDELPKFEKNFYQEHPDLARRTAQEVETYRRSKEITVRGHNCPKPVLNFYEANFPANVMDVIARQNFTEPTAIQAQGWPVALSGLDMVGVAQTGSGKTLSYLLPAIVHINHQPFLERGDGPICLVLAPTRELAQQVQQVAAEYCRACRLKSTCIYGGAPKGPQIRDLERGVEICIATPGRLIDFLECGKTNLRRTTYLVLDEADRMLDMGFEPQIRKIVDQIRPDRQTLMWSATWPKEVRQLAEDFLKDYIHINIGALELSANHNILQIVDVCHDVEKDEKLIRLMEEIMSEKENKTIVFVETKRRCDELTRKMRRDGWPAMGIHGDKSQQERDWVLNEFKHGKAPILIATDVASRGLDVEDVKFVINYDYPNSSEDYIHRIGRTARSTKTGTAYTFFTPNNIKQVSDLISVLREANQAINPKLLQLVEDRGSGRSRGRGGMKDDRRDRYSAGKRGGFNTFRDRENYDRGYSSLLKRDFGAKTQNGVYSAANYTNGSFGSNFVSAGIQTSFRTGNPTGTYQNGYDSTQQYGSNVPNMHNGMNQQAYAYPATAAAPMIGYPMPTGYSQ
B5: SFPQ: host protein, UniProt P23246 (protein, UniProt P23246 1-707, looked up)
Splicing factor, proline- and …: MSRDRFRSRGGGGGGFHRRGGGGGRGGLHDFRSPPPGMGLNQNRGPMGPGPGQSGPKPPIPPPPPHQQQQQPPPQQPPPQQPPPHQPPPHPQPHQQQQPPPPPQDSSKPVVAQGPGPAPGVGSAPPASSSAPPATPPTSGAPPGSGPGPTPTPPPAVTSAPPGAPPPTPPSSGVPTTPPQAGGPPPPPAAVPGPGPGPKQGPGPGGPKGGKMPGGPKPGGGPGLSTPGGHPKPPHRGGGEPRGGRQHHPPYHQQHHQGPPPGGPGGRSEEKISDSEGFKANLSLLRRPGEKTYTQRCRLFVGNLPADITEDEFKRLFAKYGEPGEVFINKGKGFGFIKLESRALAEIAKAELDDTPMRGRQLRVRFATHAAALSVRNLSPYVSNELLEEAFSQFGPIERAVVIVDDRGRSTGKGIVEFASKPAARKAFERCSEGVFLLTTTPRPVIVEPLEQLDDEDGLPEKLAQKNPMYQKERETPPRFAQHGTFEYEYSQRWKSLDEMEKQQREQVEKNMKDAKDKLESEMEDAYHEHQANLLRQDLMRRQEELRRMEELHNQEMQKRKEMQLRQEEERRRREEEMMIRQREMEEQMRRQREESYSRMGYMDPRERDMRMGGGGAMNMGDPYGSGGQKFPPLGGGGGIGYEANPGVPPATMSGSMMGSDMRTERFGQGGAGPVGGQGPRGMGPGTPAGYGRGREEYEGPNKKPRF
B6: SERBP1 (protein, UniProt Q8NC51 2-408, looked up)
SERPINE1 mRNA-binding protein …: PGHLQEGFGCVVTNRFDQLFDDESDPFEVLKAAENKKKEAGGGGVGGPGAKSAAQAAAQTNSNAAGKQLRKESQKDRKNPLPPSVGVVDKKEETQPPVALKKEGIRRVGRRPDQQLQGEGKIIDRRPERRPPRERRFEKPLEEKGEGGEFSVDRPIIDRPIRGRGGLGRGRGGRGRGMGRGDGFDSRGKREFDRHSGSDRSSFSHYSGLKHEDKRGGSGSHNWGTVKDELTESPKYIQKQISYNYSDLDQSNVTEETPEGEEHHPVADTENKENEVEEVKEEGPKEMTLDEWKAIQNKDRAKVEFNIRKPNEGADGQWKKGFVLHKSKSEEAHAEDSVMDHHFRKPANDITSQLEINFGDLGRPGRGGRGGRGGRGRGGRPNRGSRTDKSSASAPDVDDPEAFPALA

What was measured:
Assay type in all cases: binding
[1] = tested on: SARS-CoV-2 gRNA; conditions: […]; LC-MS/MS; Probe I sample (first 199 lines of Table 2)
[2] = tested on: SARS-CoV-2 gRNA and sgRNAs; conditions: for target (unweighted spectral count in RNP capture): Probe II capture, LC-MS/MS LFQ; for background (unweighted spectral count in control): no-probe control pull-down, used as background for Probe II
[3] = tested on: gRNA of HCoV-OC43; conditions: for target (spectral count, OC43 Probe I RNP capture) / background (spectral count, no-probe control): type n_48_v: 48 hours post-infection; for target (spectral count, OC43 Probe I RNP capture): infected cells, unweighted spectral count; for background (spectral count, no-probe control): no-probe control on infected cells; for target (spectral count) / background (spectral count): type g_36_m, 36 hpi, Probe I; for target (spectral count): HCoV-OC43-infected HCT-8 cells; for background (spectral count): uninfected-probe control
[4] = tested on: HCoV-OC43 gRNA and sgRNA; conditions: for target (unweighted spectral count): OC43 Probe II, infected cells; for target (unweighted spectral count) / target (unweighted spectral count, OC43 Probe II capture): tested against no-probe control; for target (unweighted spectral count, OC43 Probe II) / background (unweighted spectral count, no-probe control): type n_48_v, 48 hpi; for target (unweighted spectral count, OC43 Probe II): OC43 Probe II capture on infected cells; for background (unweighted spectral count, no-probe control): no-probe control on infected cells; for target (unweighted spectral count, OC43 Probe II capture): FDR<10%; for target (spectral count) / background (spectral count): type s_36_m, Probe II; for target (spectral count): HCoV-OC43-infected HCT-8 cells; for background (spectral count): uninfected-probe control

| Molecule | target (unweighted spectral count of the protein in the RNP capture) [1] | target (unweighted spectral count in RNP capture) [2] | background (unweighted spectral count in control) [2] | target (spectral count, OC43 Probe I RNP capture) [3] | background (spectral count, no-probe control) [3] | target (unweighted spectral count) ([4]; 12 hpi (type n_12_v)) | target (unweighted spectral count) ([4]; 24 hpi (type n_24_v)) | target (unweighted spectral count, OC43 Probe II) [4] | background (unweighted spectral count, no-probe control) [4] | target (spectral count) [3] | background (spectral count) [3] | target (unweighted spectral count, OC43 Probe II capture) ([4]; 24 hpi, type n_24_v) | target (unweighted spectral count, OC43 Probe II capture) ([4]; 36 hpi, type n_36_v) | target (spectral count) ([4]; 36 hpi) | background (spectral count) ([4]; 36 hpi) |
| --- | --- | --- | --- | --- | --- | --- | --- | --- | --- | --- | --- | --- | --- | --- | --- |
| B1 | 25 | 25 | 1 | 17 | 3 | 6 | 9 | 18 | 3 | – | – | – | – | – | – |
| B2 | 15 | 21 | 1 | 17 | 1 | – | – | – | – | 14 | 2 | 6 | 10 | – | – |
| B3 | 43 | – | 1 | – | – | 12 | 25 | 46 | 2 | 59 | 6 | – | 42 | 42 | 5 |
| B4 | 32 | 24 | 1 | 30 | 3 | 8 | – | 31 | 3 | 30 | 3 | – | – | 33 | 3 |
| B5 | 50 | 38 | 1 | 39 | 7 | – | 16 | 33 | 7 | 33 | 7 | – | 36 | 36 | 3 |
| B6 | 17 | 30 | 1 | 19 | 4 | – | 6 | 18 | 4 | – | – | – | 15 | – | – |
